Experimental data reported in publication doi:10.1101/2021.12.02.470928 (2021).

B1: PNUTS(1-148), PNUTS amino-terminal domain (PAD) (domain or fragment)
chain: MGSGPIDPKELLKGLDSFLNRDGEVKSVDGISKIFSLMKEARKMVSRCTYLNILLQTRSPEILVKFIDVGGYKLLNNWLTYSKTTNNIPLLQQILLTLQHLPLTVDHLKQNNTAKLVKQLSKSSEDEELRKLASVLVSDWMAVIRSQS

What was measured:
Test in all cases: BLI
MYC(1-88 Q20A) = molecular target: MYC(1-88 Q20A)
MYC(1-88)-Q20A = molecular target: MYC(1-88)-Q20A
MYC(1-88)-V19A = molecular target: MYC(1-88)-V19A
MYC(1-88 V19A) = molecular target: MYC(1-88 V19A)
[1] = molecular target: B1

A Kd (MYC(1-88 Q20A)) of 5.3 µM, a Kd (MYC(1-88)-Q20A) of 5.3 µM and a Kd (MYC(1-88)-V19A) of 8.4 µM were found for B1 in this work. The Kd (MYC(1-88 V19A)) was 8.4 µM.

B2: biotinylated MYC(1-88 F23A) (domain or fragment)
chain: MPLNVSFTNRNYDLDYDSVQPYAYCDEEENFYQQQQQSELQPPAPSEDIWKKFELLPTPPLSPSRRSGLCSPSYVAVTPFSLRGDNDG
modifications: biotin on the C-terminal AVI tag
A Kd [1] of 19 µM was found for B2 in this work.

B3: biotinylated MYC(1-88 Y22A) (domain or fragment)
chain: MPLNVSFTNRNYDLDYDSVQPAFYCDEEENFYQQQQQSELQPPAPSEDIWKKFELLPTPPLSPSRRSGLCSPSYVAVTPFSLRGDNDG
modifications: biotin on the C-terminal AVI tag
A Kd [1] of 24 µM was found for B3 in this work.

B4: biotinylated MYC(1-88 Y24A) (domain or fragment)
chain: MPLNVSFTNRNYDLDYDSVQPYFACDEEENFYQQQQQSELQPPAPSEDIWKKFELLPTPPLSPSRRSGLCSPSYVAVTPFSLRGDNDG
modifications: biotin on the C-terminal AVI tag
A Kd [1] of 37 µM was found for B4 in this work.

B5: biotinylated MYC(1-88 P21A) (domain or fragment)
chain: MPLNVSFTNRNYDLDYDSVQAYFYCDEEENFYQQQQQSELQPPAPSEDIWKKFELLPTPPLSPSRRSGLCSPSYVAVTPFSLRGDNDG
modifications: biotin on the C-terminal AVI tag
A Kd [1] of 19 µM was found for B5 in this work.
